In series [1] the target is T1, alpha-fetoprotein (AFP) (Homo sapiens) (UniProt P02771).
T1 sequence: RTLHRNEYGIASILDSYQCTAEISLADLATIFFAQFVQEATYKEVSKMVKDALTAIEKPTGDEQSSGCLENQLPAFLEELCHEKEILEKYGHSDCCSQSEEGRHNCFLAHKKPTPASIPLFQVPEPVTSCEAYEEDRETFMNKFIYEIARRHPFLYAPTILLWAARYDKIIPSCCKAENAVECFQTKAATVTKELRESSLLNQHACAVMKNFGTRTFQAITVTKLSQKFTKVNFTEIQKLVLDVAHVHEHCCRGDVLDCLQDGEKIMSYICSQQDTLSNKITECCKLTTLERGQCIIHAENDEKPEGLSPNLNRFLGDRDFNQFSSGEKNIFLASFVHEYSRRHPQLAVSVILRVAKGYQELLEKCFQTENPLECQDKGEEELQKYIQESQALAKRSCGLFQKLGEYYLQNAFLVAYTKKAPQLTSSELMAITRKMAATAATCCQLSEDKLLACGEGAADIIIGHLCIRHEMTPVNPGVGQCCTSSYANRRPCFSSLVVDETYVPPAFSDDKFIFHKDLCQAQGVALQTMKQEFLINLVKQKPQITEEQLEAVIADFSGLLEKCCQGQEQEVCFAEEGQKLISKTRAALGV
Kind of series: magnetic bead binding assay, antiF-POD, chronoamperometry. The following applies: no amplification; 1:1 fit; 1x PBS, 25 °C, 30 min, 1300 rpm; 60 µg AFP-modified magnetic beads in 250 µL (effective AFP about 34 nM); washes 1x PBS 0.01% Tween 20; pH not stated.

Series [2] has as its target T2, alpha-fetoprotein (AFP) (Homo sapiens, UniProt P02771 19-609).
T2 sequence: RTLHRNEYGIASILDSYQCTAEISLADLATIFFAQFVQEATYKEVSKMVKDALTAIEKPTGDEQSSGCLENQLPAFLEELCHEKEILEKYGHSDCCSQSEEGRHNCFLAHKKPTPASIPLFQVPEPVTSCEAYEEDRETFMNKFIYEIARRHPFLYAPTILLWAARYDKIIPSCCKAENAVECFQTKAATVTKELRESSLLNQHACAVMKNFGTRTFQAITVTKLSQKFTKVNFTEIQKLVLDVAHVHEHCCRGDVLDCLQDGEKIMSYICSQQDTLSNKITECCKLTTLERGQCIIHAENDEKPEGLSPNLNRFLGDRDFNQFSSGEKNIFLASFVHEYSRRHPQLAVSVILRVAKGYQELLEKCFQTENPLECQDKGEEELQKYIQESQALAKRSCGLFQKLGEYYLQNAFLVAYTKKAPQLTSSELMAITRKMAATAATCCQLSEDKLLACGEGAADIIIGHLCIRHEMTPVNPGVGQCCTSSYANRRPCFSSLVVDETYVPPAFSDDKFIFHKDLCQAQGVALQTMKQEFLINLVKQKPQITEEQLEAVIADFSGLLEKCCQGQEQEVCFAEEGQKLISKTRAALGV
In words: magnetic bead binding assay, antiF-POD, chronoamperometry; no amplification; Hill n = 1.6 ± 0.4; 1x PBS, 25 °C, 30 min, 1300 rpm; 60 µg AFP-modified magnetic beads in 250 µL (effective AFP about 34 nM); washes 1x PBS 0.01% Tween 20; pH not stated. The following applies: protein: native; label: 5' FITC.

In series [3] the target is T2, alpha-fetoprotein (AFP). Kind of series: magnetic bead binding assay, TdT amplification, SA-POD, chronoamperometry; apparent Kd; TdT elongation after binding; Langmuir fit; 1x PBS, 25 °C, 30 min, 1300 rpm; 60 µg AFP-modified magnetic beads in 250 µL (effective AFP about 34 nM); washes 1x PBS 0.01% Tween 20; pH not stated. To be noted: protein: native.
The target of series [4] is T2, alpha-fetoprotein (AFP). Kind of series: magnetic bead binding assay, RCA amplification, antiF-POD, chronoamperometry; apparent Kd; RCA after binding; Langmuir fit (abstract prints 189 nM); 1x PBS, 25 °C, 30 min, 1300 rpm; 60 µg AFP-modified magnetic beads in 250 µL (effective AFP about 34 nM); washes 1x PBS 0.01% Tween 20; pH not stated. The following applies: protein: native.

This passage reports Kd results from article PMC7277757, “On the Electrochemical Detection of Alpha-Fetoprotein Using Aptamers: DNA Isothermal Amplification Strategies to Improve the Performance of Weak Aptamers”.

As for “TCAGGTGCAGTTCTCGACTCGGTCTTGATGTGGGT [AFP-S-FITC]”, the Kd in series [1] came out at 713 nM.

B1: AFP-L-FITC (ssDNA)
DNA: GGCAGGAAGACAAACAAGCTTGGCGGCGGGAAGGTGTTTAAATTCCCGGGTCTGCGTGGTCTGTGGTGCTGT
Turning to B1, the Kd with alpha-fetoprotein (AFP) [2] came to 526 ± 101 nM.

B2: AFP-L-TdT (ssDNA)
DNA: GGCAGGAAGACAAACAAGCTTGGCGGCGGGAAGGTGTTTAAATTCCCGGGTCTGCGTGGTCTGTGGTGCTGTTTTTTT
As for B2, the Kd with alpha-fetoprotein (AFP) [3] worked out at 32 ± 11 nM.

B3: AFP-S-RCA (ssDNA)
DNA: TCAGGTGCAGTTCTCGACTCGGTCTTGATGTGGGTTTTTTTTTTTAGATAGTAAGTGCAATCT
As to B3, the Kd in the series with alpha-fetoprotein (AFP) [4] is 188 ± 33 nM.
